According to patent publication US20120059148 (published 2012):

Target: LDL receptor (cell surface) (UniProt P01130)
Assay: other, cell binding, total binding double reciprocal plot

Sequence of LDL receptor (cell surface) (P01130 22-788): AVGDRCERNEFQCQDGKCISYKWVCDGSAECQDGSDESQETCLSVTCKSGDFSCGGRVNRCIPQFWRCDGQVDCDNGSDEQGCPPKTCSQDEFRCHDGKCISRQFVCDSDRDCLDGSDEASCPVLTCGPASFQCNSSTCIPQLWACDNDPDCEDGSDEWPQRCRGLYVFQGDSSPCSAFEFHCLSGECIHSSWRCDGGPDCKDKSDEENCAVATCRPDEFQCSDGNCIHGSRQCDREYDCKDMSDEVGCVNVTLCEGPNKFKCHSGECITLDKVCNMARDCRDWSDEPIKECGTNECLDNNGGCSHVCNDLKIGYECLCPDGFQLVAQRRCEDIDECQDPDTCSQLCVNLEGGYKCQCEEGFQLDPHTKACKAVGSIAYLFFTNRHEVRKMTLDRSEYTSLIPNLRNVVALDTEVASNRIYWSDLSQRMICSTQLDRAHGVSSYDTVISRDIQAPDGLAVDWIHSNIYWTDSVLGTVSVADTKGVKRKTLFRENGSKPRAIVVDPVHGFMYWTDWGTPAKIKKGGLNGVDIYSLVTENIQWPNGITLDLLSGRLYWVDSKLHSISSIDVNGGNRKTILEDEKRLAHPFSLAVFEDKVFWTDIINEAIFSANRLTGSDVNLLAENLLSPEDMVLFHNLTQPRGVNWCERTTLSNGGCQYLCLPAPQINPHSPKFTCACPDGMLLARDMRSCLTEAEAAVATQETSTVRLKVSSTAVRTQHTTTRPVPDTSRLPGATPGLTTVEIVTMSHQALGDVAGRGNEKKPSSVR

Kd [µM]	Binder
7.7	YKLQGTTRLTRKRGLKLATALS [[Peptide C] nLDL]
15.2	TGKRYRLKTLRTLKKTSLLEAA [[Peptide E] nLDL]
3	YKLEGTTRLTRKRGLKLATALS [[Peptide D] nLDL]
9.3	GTTRLTRKRGLKL [[Peptide B] nLDL]
